Data as given in the domain aggregation screens of Martell et al. (2025).

Assay: soluble fraction after stress (log2 fold change); higher = more stays soluble; pooled small domains, quantitative proteomics
Conditions: stress: 75 degC
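Also: 20 min heating vs room temperature control held 20 min.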

Row | Sequence | soluble fraction (log2)
1 | HMAQLTPREREVLVLIAEGKSNKEIADQLNIGVRTIETHRERIMRRLNIHSVAGLTKYAIANGLVTL | -0.36
2 | HMAQPIPSGADIRAAREAAGMTLRRFAEYIAGPDFSTWSRYETGKPIRVKNISPEVWQRVRKFIAQNKG | -0.33
3 | HMAQQEMEIIPLRHRQVEQVMPTLRPLLEPGAALSGMNNQLILRASRKNREEIKQALAVIDT | 0.0427
4 | HMAQSEDLMVMAQRILGGPEAQSFFQAEATRQGLAGFLPEPIPDFLQRLERKLSGSVGSATAHAMVAQTMG | 0.0569
5 | HMAQSLAQKINNYILTNRSSIANVAKSIGYSRTTVSRYLAGKYDSDPTDLENKLAEFLAHETGE | -0.253
6 | HMAQTEIIRVTKDIKKGDAITADKFEKVKVGAYNLPGNVVKNADELKGKFAAADLVRGDYILTSKLTDNP | 0.183
7 | HMAQVRSTVERRENGTYTVELNLNDDVDNVMRLQLMVATKEMAEDLAQRFQKNPEQVYSQLVTALYG | -0.723
8 | HMAQVSDDAELEKWADTAIDEHPKPVEEYRAGNAASINFLMGQVMKMSRGKANPGAVMQILKQKLD | 0.0191
9 | HMAQVSDTGAIAKIVADAIAANPKQVQQYLDGNEKVLMYLVGQVMKLSKGKANPPMVIQLLKEQLG | -0.125
10 | HMAQVSDTGELEGVVDGVLAANAKSVADFQAGKENAFQYLIGQVMKETKGKANPEVVATLLRTKLS | -0.523
11 | HMARAGKLAQDMAVWTKETMLNTERNFISLRHFKRELLRRTLAPGESEQTVRAMEEAGYIQVKDGLVFPIK | -2.43
12 | HMAREQISVSQMVRDVRDGQVKNIEVLGQELRLSYADGSQKVTRKEEGQQALEILFASDIDLAALDLEVQ | -0.0792
13 | HMARIDYHAMDSDDLSFSEGELLEIYDKPGSFWWKGRSLVSGDEGDIPS | -0.0708
14 | HMARKFQKDTGYLNKKERTWLLDFFPSLKKYLYTGAYIRSIIVVESNVTYTDKELPSNYTFTYKFA | -0.522
15 | HMARKISVEALGKYFPNSPMLAAAVAVTGVMKKDEFIHEMRASYKHKFAKKPEVIDGNMKALTMTFEA | 0.11
16 | HMARNHYETLGVGRTATGDEIRKAYRSEAQKHHPDRGGDAERMQSLNEARDTLLDDQARAAYDQELDL | 0.154
17 | HMARPLLSPREQDVLALIARGFSYSEVARLQAVTVHTIRTHIRNLYAKLSVHSKTEAVFEATRMGLLP | -1.94
18 | HMARRKRDIDSDINVKVFEHWLDNLDSASRESFSAFAEETFSPIQVYLYAKFLGYESSIIAVDHWVAVAYP | 0.135
19 | HMARSVAEFVERGRSGGSLERPKLQRMLEYIQDRPVDFVIVHKIDRLARNRADDAAITKTIRGAGAYLVST | 0.1
20 | HMARTGSEELVGALATVREPLAPWGQVFVQGALWRARSADGGPVDAGQQVVVRAVEGLTLVVEPRD | -0.143
21 | HMARYSMLEEQLLQLINKHGTMSTPKLVEATGAPRSTVTYQLRKLLESGTIERTQPARSPKQSYRIKS | -0.416
22 | HMASATGVVTAASLNVRSGAGTNYSVVNTLAKGTKVTVLNTADGWYEIEATVNNEKITGYVSATYIAMD | -0.538
23 | HMASLSRRELEVLELLALRLTVKEVAERLVISELTAKRHTSNIYQKLGVNRRRDALAAAQARGLLGAR | -3.18
24 | HMASRSQTEIMHLLSSGLPKHELVTALQSLLGISKPTAYKYLSQDVSIAYDHMVKILEYPPFQRVLYQ | -1.93
25 | HMASSVKAPLPGVILDIKVKVGDTIKNGDTVVILEAMKMENNIHSDKDGVVKSIEVNKGDSVLEGATLLTI | 0.33
26 | HMASVDDILDRFKQAAKVTTDADLAKVLGLSRQSIAAARLRAKIPASWFPKMSSLFNISTEWLYRG | -1.18

Row | Sequence | soluble fraction (log2)
27 | HMASVRPVAPPDPKTHTRLTYRIRRGDTLERIGRRYRVSIAEIQAWNTLRDPGDILAGQRLVIWIPTS | -2.33
28 | HMATAPQIRAIYALGSKLGINQNSREDNLHQLVYSITGKESIKGLTNYEAARVQSELANMERK | 0.323
29 | HMATEPLQPRVEVLGSTLATTNGARIVGVYDMSGREVSATQLSKGVYIVKVTNGSVTATQKVFI | -0.477
30 | HMATETMGMIIRRLRREHGLTQEELAASIGVTAQAVSKWEKDLGMPDISQIVPLAGAFNVRTDVLFGLE | -2.65
31 | HMATEWLSSKEAAQRLGVSAATLYAYVSRGLLRSEGSSGQRERRYRADDVAQLRRRREVGRKAESIAASTL | -1.31
32 | HMATHWHITPNPNNGKFLISGLMQDDSFHLMDASGQWLRQLRTVNQELDLDLQPGVYFLKDNSGSVMKFVV | -1.13
33 | HMATIADILAEHKDKEGPLLPVLHDVQKMFGHVSEEAMREIAQALNLTRAEVYGVVSFYHDFRKEVE | -1.46
34 | HMATIIGSIGIVTQKVGLTGVPGRVYVNNESWAAISANGKEIENDTQVIVVKIDGATLIIEKKG | -2.22
35 | HMATKEQIKRIYGLGAGLGIVGKDKDDMLHELIFSITGKDSVKQLDDSEFKAVQAELINRMKLA | 0.0958
36 | HMATLAVPNLMRLSQGEAMALIRLSGLSIGNVSIDSSMGSPRVIRQEPQASGGMLVLTQGDQVHLWLEGP | -3.75
37 | HMATLQLPVPKITLYPGELIRSDHLTDQRFNARALYHSAVYKSREDIVGKVARRTLLPGQPIPVNALR | -1.07
38 | HMATPKRGFRKQLAPLVQSGTITREEAGELSRSSGDATALRTKIGELMKAGKLTRKEAGELYSDAFPENA | 0.145
39 | HMATPYISMAGIGKSFGPVHALKSVNLTVYPGEIHALLGENGAGKSTLMKVLSGIHEPTKGTITINNIN | 0.458
40 | HMATRAEQMAKTHQAILDTARELFLRNGYDATSTRDIANAIGITQPALYHHFKDKEVIFLAVI | -0.107
41 | HMATSLTEQEKLIFGLLKKQSPIELSSLKEQAGLSNKKWDKAIKGLSTQQLAKVTKTENGLFVHLLQ | 0.00913
42 | HMATTAGIEKYLGSGLIKGIGPIYAKKIVRKFKEDTIRIIDEEPDRLLEVEGIGQKRLEIIKQAWQQQKE | -0.651
43 | HMATVHVDGIQYDFSSPEQAKEFAYKWAKKHNLTWEVHGETIHIK | -0.225
44 | HMATYNEVLKRLIEERKRLGLSQQEMARLVHITQSNYSKVEKGLHRLSYEELKYLSKANVDIFYILT | -0.0786
45 | HMAVANEAIANINMKEVKQAIHNLPEIFKNPFLLYFDGYKYHEIAEMLDEPLGTIKSRIHFARKLLKSHI | -0.889
46 | HMAVDVNKATAAELDSIKGIGPAISAKILEEKKKGGNFKDWNDLVTRVSGVGEANAAKFSSEGLTVGGAS | 0.0168
47 | HMAVELPLETTLDIVRKYARNQEVDRRAERVEAVSAEALQTLAPRGTKLASEIVEQAKTQVLEELA | 0.476
48 | HMAVKYTKDDFLYTEKPYEAIYDYKNDPFMHNLKIEQMAQQAAEVGVKTFKGLYKNYVKMREMQRGANV | 0.0263
49 | HMAVNSALVQRNWLIGYRIAEEELQGDNRAEYGASIIKKLAKELTAEYGKGYTKTNLYHFYSFYKT | -0.0399
50 | HMAVNVNGIHLSSQQHEALVSIWRTGRMPEPHAGQKPWLWIQALRRRGLVSGNALRLTDKGRHIVQLLQ | -0.288
51 | HMAVPAALVQAWLELSRRMVAGTQDVGERFAEEARKMHYGETEDRGIRGQATLTEVRDLLDEGIEVLPLLL | -0.439
52 | HMAVPLVRGTVTSSVGTVLLLSVGERDFFLSEGEEKDGVLLQSLSEKSAVVVVSGRAYTLSL | -4.42

Row | Sequence | soluble fraction (log2)
53 | HMAVRLADMAAEKIRKMIIENKFDAGEPLSEMRLAEMFNVSRTPIREAIAILEQEGLLTTVHGKGAFIS | -0.896
54 | HMAVSDAAEEYGKAGTPLVILAGKEYGSGSSRDWAAKGPYLQGVRAVLAESYERIHRSNLVGMGIVPLTYK | 0.18
55 | HMAVSDPTAGGIKALMYPNPAQDRLSVALDIPAGLDKQAQMTVTDMMGRVVTQQQVTLNDGFQVFEL | 0.268
56 | HMAVSSYSVKRYIRNMIQAEDPSAPFSDEALRLALLAHGIAVSRRVVTKYRMAMDIPSSSQRRKR | -1.41
57 | HMAVSTFGRITASSLNVRSGPSTDHEKVGSLAAGRVVELLEESDGWYRIENGYISTEYVTIVDPSQ | -0.715
58 | HMAVTEVKTTAVVNMRSSDSEKADKLGKAQIGDTFRVLEQRANGWTKLTDGTQEFFIKSEYLEAIA | 0.109
59 | HMAVVAPLAGSVARVLVADGDEIEAGQVLLVLEAMKMETEITAPKAGKVGAILVGKGDSVQGGQGLR | -0.18
60 | HMAYLTGFHAIEELIRAGKAKGPLLVANAGPRARTIMSLATDNKIRIDRLGEHELNRLAPGNRGIALYVE | -0.898
61 | HMDAAYVYVIGTRVNQRAGPSTSNAVMGVLSEGTRVETLRDEGQWTQIRSNFGTGWMSSSFLSSVAP | -1.28
62 | HMDADRILHKTLKPRELEIYQLIKAYLEEHSQIANAKVQEISGLSEATTRRYLNIFVEFGLLKTS | -0.214
63 | HMDADTVGQIRVVKQILDDGRLIVVDASGNPVLVRRSSALSLTAISQGDRIIVDPSVRLAIELLPNE | -0.637
64 | HMDAEELNSKAKDEFTWLEDDESETNLEYRKMVSSEDMAIVAKVAPALAAKLKYQLAHAATNMV | 0.149
65 | HMDAEVEHLFRIIAELKEKNVAIIYISHKMDEIFRISDDITVYRDGEYIATDRAENLNVDKVIQLMVGREV | -0.429
66 | HMDAEWRTLTLAPEQHQQRLDRALADSLPEFSRSYVQQLIDTGMVRVNGVLAAKSAQRVKALDQVQVELR | -0.411
67 | HMDAGIVVPDTYNKPLAEAVASLEGEGFRTEKKEGYSDTVAKGNVMSQNPEAGTNAERGSTVTIVISQGPQ | 0.455
68 | HMDAINYEDFQLLIKQRGSFKVAFEDIMFSTKVAIEKKEDFYDFVTKLIDNGFNNMAYNYLEGFQD | -2.07
69 | HMDAISYTQFMEEAKQGRINKVEVQGRTLMVTPTDGKAYSLTSPGDLWMTTDLMKYGVNVYGAE | 0.0525
70 | HMDALKAVYQWVTRTMMKNQTGVMQTLPNRDLIELNTQITAQRLMQAGVDPTTLKNANQVENAVNIIESR | -0.69
71 | HMDAMGAVGIARAFISAGERGGDISDGLEHMHGKLLRLSSLMYTRSGKKMAARRHELLSSFVQALEEEIK | -0.327
72 | HMDAMQAFPNPTVDEIHFVTPTTGRVYNAHGQLVMVLKNAQLVNVRQWSAGQYVIVREDGYAVRWIK | -1.3
73 | HMDAPQRVTYLLPHSRGEVVSWLHRQGEVVAQEYEAEGVRVVVDLRYAQIRQAAKQFDVLPAEG | -1.24
74 | HMDAPRFAAGDAVRVAGLVSKPQHNGRAGSVLSYDPVSLRYIVKVDGEDEPLKLKPENVLMPA | 0.11
75 | HMDAQLRVPDLTPYNYSELKENTSLYEGFTIEVVEERSTGDYAAGTVLDQDPKADTLIQDGDSTVIKLVIA | 0.151
76 | HMDASFTYSLETHPAGVLVRVDGLEYETPFSILLPQGVHRLEVAGEERFFYLSETTHQFLEID | -2.9
77 | HMDATGDPIADRILQALQLGELTRTQVNNVFQRHLAAARISQALNFLRSLKRADMRMEETAGRSGEVWFAI | -0.454
